Reference: article PMC5805342

Each substance was assayed against Plasminogen (human).
In the case of Full-length muPA E73A (enzyme), the KM for plasminogen activation (indirect chromogenic assay with S-2251; plasminogen 24-0 μM, 1 nM muPA, 37°C) is reported as 24.6 µM. With Full-length muPA Y149A (enzyme) the KM for plasminogen activation (indirect chromogenic assay with S-2251; plasminogen 24-0 μM, 1 nM muPA, 37°C) was 12 µM and the kcat for plasminogen activation (indirect chromogenic assay with S-2251; plasminogen 24-0 μM, 1 nM muPA, 37°C) was 0.06 s⁻¹. Substance Full-length muPA P78A (enzyme) has a KM for plasminogen activation (indirect chromogenic assay with S-2251; plasminogen 24-0 μM, 1 nM muPA, 37°C) of 3.9 µM. With Full-length muPA N77A (enzyme) the KM for plasminogen activation (indirect chromogenic assay with S-2251; plasminogen 24-0 μM, 1 nM muPA, 37°C) was 5.1 µM. For Full-length muPA Y76A (enzyme), the KM for plasminogen activation (indirect chromogenic assay with S-2251; plasminogen 24-0 μM, 1 nM muPA, 37°C) was 5 µM. “Full-length murine urokinase-type plasminogen activator (muPA) (from UniProt P06869 21-433) (enzyme)” showed a KM for plasminogen activation (indirect chromogenic assay with S-2251; plasminogen 24-0 μM, 1 nM muPA, 37°C) of 9.8 µM. Work on Full-length muPA S74A (enzyme) yielded a KM for plasminogen activation (indirect chromogenic assay with S-2251; plasminogen 24-0 μM, 1 nM muPA, 37°C) of 22 µM. Full-length muPA K72A (enzyme) showed a KM for plasminogen activation (indirect chromogenic assay with S-2251; plasminogen 24-0 μM, 1 nM muPA, 37°C) of 3.1 µM.
